Positions count from the first letter of the chain named. Numbers in names are those of the source.
B1: wt‐MBP‐(pep)Xa‐hPAH‐RD^1–120 fusion protein (domain or fragment, human, UniProt P00439 1-120, looked up)
chain: MSTAVLENPGLGRKLSDFGQETSYIEDNCNQNGAISLIFSLKEEVGALAKVLRLFEENDVNLTHIESRPSRLKKDEYEFFTHLDKRSLPALTNIIKILRHDIGATVHELSRDKKKDTVPW
notes: N-terminal regulatory domain (RD) of human phenylalanine hydroxylase (hPAH), residues 1-120 (stop signal introduced in codon 121), SwissProt P00439; From pMAL‐hPAH‐RD^1–120 (pMAL-c2 vector); a factor Xa cleavage peptide (pep)Xa lies between MBP and the RD; Isolated by SEC as a dimeric and a monomeric fraction; also called MBP‐hPAH‐RD^1–120; wt‐MBP‐hPAH‐RD; source: E. coli, purified (amylose …)
B2: MBP‐hPAH‐G46S‐RD^1–120 fusion protein (domain or fragment, human, UniProt P00439 1-120, looked up)
chain: B1 chain with G46S
notes: From pMAL‐hPAH‐G46S‐RD^1–120; a factor Xa cleavage peptide lies between MBP and the RD; G46S is a mutation found in patients with phenylketonuria; also called hPAH‐G46S‐RD^1–120 dimer fusion protein; source: E. coli, purified (amylose resin, SEC); not shown: MBP, N-terminal, kept

Biological target: the molecule itself
Test: SEC; HiLoad Superdex 200 HR column (1.6 cm × 60 cm), 20 mM Na‐Hepes, 0.2 M NaCl, pH 7.0, 0.38 mL·min^−1, 4 °C; masses estimated from standard markers; dimer to monomers

Row | Protein | stoichiometry N
1 | B1 | 2
2 | B2 | 2
